Test results from publication PMC7846786, “DutaFabs are engineered therapeutic Fab fragments that can bind two targets simultaneously” (Nature Communications, 2021).

T1: recombinant human VEGFA-121 (Homo sapiens, strain)
T1 construct: homodimer; Two suppliers are named for different experiments; also called VEGFA dimer; source: bought: Peprotech (catalog number 100-20A; panning, crystallisation); bought: Humanzyme (ELISAs)
T1 chain: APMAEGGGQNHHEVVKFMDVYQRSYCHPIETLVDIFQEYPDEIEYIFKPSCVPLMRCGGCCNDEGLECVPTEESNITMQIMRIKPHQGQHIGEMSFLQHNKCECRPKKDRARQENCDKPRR


What was measured:
Conditions in all cases: both partners purified
[1] = target: T2, PDGF-BB (Homo sapiens, UniProt P01127); assay: kinetic exclusion assay (KinExA); in solution; 4 h pre-incubation of 50 pM DutaFab with 244 fM-4 nM PDGF-BB, or of 100 pM DutaFab with 122 fM-2 nM VEGFA-121; duplicate 1:2 titration series; 25 °C
T2 construct: platelet-derived growth factor subunit B, human, recombinant; homodimer PDGF-BB; as I recall, the commercial protein is the 109-residue mature B chain (residues 82-190 of the precursor); also called recombinant human PDGF-BB; source: 100-13A is printed for crystallization) and from R&D Systems
T2 sequence (P01127 82-190): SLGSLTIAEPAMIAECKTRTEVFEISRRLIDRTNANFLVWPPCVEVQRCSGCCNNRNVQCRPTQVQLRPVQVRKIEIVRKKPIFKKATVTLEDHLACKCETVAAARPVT

[2] = target: T3, rat VEGF-A121 (Rattus norvegicus, UniProt P16612-4, strain); assay: SPR; affinities of the Fab fragments used in the in-vivo study for human and rat VEGF-A121, expressed as KD (nM); who was immobilised and the conditions not given
T3 construct: The homodimer is stated for VEGFA in general

[3] = target: T4, human VEGFA-121 (Homo sapiens, UniProt P15692); assay: as above
T4 construct: homodimer
T4 sequence (P15692 other isoform, or with tags, fused parts or gaps): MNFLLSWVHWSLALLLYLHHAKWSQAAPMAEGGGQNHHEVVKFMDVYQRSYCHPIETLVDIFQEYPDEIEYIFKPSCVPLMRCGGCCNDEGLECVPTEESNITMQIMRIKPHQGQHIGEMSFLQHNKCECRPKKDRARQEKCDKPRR

[4] = target: T4, human VEGFA-121; assay: kinetic exclusion assay (KinExA); in solution; 4 h pre-incubation of 50 pM DutaFab with 244 fM-4 nM PDGF-BB, or of 100 pM DutaFab with 122 fM-2 nM VEGFA-121; duplicate 1:2 titration series; 25 °C
[5] = target: T2, PDGF-BB; assay: as above; remark: listed apart in the source
[6] = target: T5, recombinant human PDGF-BB (human, UniProt P01127); assay: ELISA; IC50 competition ELISA: rhVEGFR-1-Fc (1 µg/mL) or rhPDGFRβ-Fc (0.5 µg/mL) coated; ligand (5 pM VEGFA-165, 8 pM VEGFA-121 or 5 pM PDGF-BB) pre-incubated 1.5 h with 1:2 dilutions of Fab in PBS, 0.1% Tween-20, 1% BSA; 10 min on the plate at RT; free ligand detected with biotinylated anti-hVEGF or anti-hPDGF-BB goat IgG; 4-parameter fit
T5 construct: platelet-derived growth factor subunit B, human; homodimer; Two suppliers and two Peprotech catalogue numbers are printed; also called PDGF-BB dimer; source: bought: R&D Systems (ELISAs); bought: Peprotech (catalog number 100-14B for panning; 100-13A printed for crystallisation)
T5 sequence (P01127 82-190): as the sequence (P01127 82-190) above

[7] = target: T6, recombinant human VEGFA-165 (Homo sapiens, UniProt P15692-4, strain); assay: as above
T6 construct: homodimer; source: bought: Humanzyme
T6 sequence (P15692 whole entry, looked up, change not shown): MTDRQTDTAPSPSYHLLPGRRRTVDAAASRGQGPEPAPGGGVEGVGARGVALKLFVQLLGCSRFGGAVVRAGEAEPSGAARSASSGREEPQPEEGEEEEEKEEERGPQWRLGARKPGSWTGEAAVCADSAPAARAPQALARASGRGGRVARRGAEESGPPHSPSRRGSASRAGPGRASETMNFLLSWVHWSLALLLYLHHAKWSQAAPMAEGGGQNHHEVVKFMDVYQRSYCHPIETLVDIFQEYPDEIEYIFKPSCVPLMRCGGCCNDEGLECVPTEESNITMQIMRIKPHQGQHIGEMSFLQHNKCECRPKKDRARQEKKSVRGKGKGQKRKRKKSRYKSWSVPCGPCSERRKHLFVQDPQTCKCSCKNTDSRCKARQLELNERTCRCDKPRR

[8] = target: T1, recombinant human VEGFA-121; assay: as above

Binder | Kd [1] [nM] | Kd [2] [nM] | Kd [3] [nM] | Kd [4] [nM] | Kd [5] [nM] | IC50 [6] [nM] | IC50 [7] [nM] | IC50 [8] [nM]
DutaFab VP mat YHE (Fab, V domains shown, human CH1 constant domain, as the heavy chain of Dm1 (PDB 6T9D, 6T9E); that R108 may be the first residue of the UniProt entry, so it must not be doubled; Co-operativity variant of Dm1; the PDB entries hold the parent VP mat; also called clone VP mat YHE; source: periplasmatic expression in E. coli or HEK Expi293 cells, purified (kappa select, then cation exchange or SEC)) VH: DLQLVESGGGLVKPGGSLRLSCAADGWWFGYTDMSWVRQAPGKGLEWVGSISYKGGSTYYNTKFIGRFTISRDDDTNTLYLQMNSLRAEDTAVYYCARDDGYFDTWGQGTLVTVSS VL: AIYMHQEPSSLSASVGDRVTITCHGSYWLSNYLAWYQQKPGKAPKLLIYDGKEREHGVPSRFSGSGSHEDYTLTISSLQPEDFATYYCQQYRYHPYTFGHGTKVEIK | 0.006 | 0.043 | 0.005 | 0.00323 | 0.00402 |  |  | 
DutaFab clone VP (initial bispecific DutaFab against VEGFA and PDGF-BB) (Fab, V domains shown, human VH3 scaffold with CH1; H-side paratope against PDGF-BB; human Vk1 scaffold with Ck; L-side paratope against VEGFA; Bispecific Fab with two paratopes in one Fv; also called DutaFab VP; original bispecific DutaFab VP; source: periplasmic expression in E. coli or HEK Expi293 cells, purified (kappa select, then cation exchange or SEC)) VH: EEQLVESGGGLVQPGGSLRLSCAASGWWFEYTDMSWVRQAPGQGLEWVGSISPSGGSTYYNTNFIGRFTISRDDSKNTLYLQMNSLRDEDTAVYYCARDEGYFDEWGQGTLVTVSS VL: AIQMTQSPSSLSASVGDRVTITCQASYWLHKYLAWYQQKPGQAPKLLIYDASELEYGVPDRFSGSGSGTDFTLTISSLEPEDFAVYYCQNYRYHPYTFGQGTKLEIK |  |  |  |  |  | 21 | 0.023 | 0.894
